Assay results: the supplement of paper PMC12855868

B1: library; numbered along this chain (parent)
chain: MAAAGGARLLRAASAVLGGPAGRWLHHAGSRAGSSGLLRNRGPGGSAEASRSLSVSARARSSSEDKITVHFINRDGETLTTKGKVGDSLLDVVVENNLDIDGFGACEGTLACSTCHLIFEDHIYEKLDAITDEENDMLDLAYGLTDRSRLGCQICLTKSMDNMTVRVPETVADARQSIDVGKTS

Variants of: B1
Assay: scaled log2 fold change in cell abundance, elesclomol vs control (0 = silent mean, 1 = nonsense mean) (scaled log2 ratio); higher = higher viability under elesclomol (loss of FDX1 cuproptosis function)
Details: glucose 10 mM
[1] = with ABC1 FDX1 KO, elesclomol 5 nM, 14 days
[2] = with HEK293T FDX1 KO, elesclomol 40 nM, 11 days
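Note: variant abundance is its share of total variant reads in each endpoint sample, from next-generation sequencing of the integrated ORF PCR-amplified out of genomic DNA.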

Variant	scaled log2 fold change [1]	scaled log2 fold change [2]
MAAAGGARLLRAASAVLGGPAGRWLHHAGSRAGSSGLLRNRGPGGSAEASRSLSVSARARSSSEDKITVHFINRDGETLTTKGKVGDSLLDVVVENNLDIDGFGACEGTLACSTCHLIFEDHIYEKLDAITDEENDFLDLAYGLTDRSRLGCQICLTKSMDNMTVRVPETVADARQSIDVGKTS [M137F]	-0.075	-0.7
MAAAGGARLLRAASAVLGGPAGRWLHHAGSRAGSSGLLRNRGPGGSAEASRSLSVSARARSSSEDKITVHFINRDGETLTTKGKVGDSLLDVVVENNLDIDGFGACEGTLACSTCHLIFEDHIYEKLDAITDEENDKLDLAYGLTDRSRLGCQICLTKSMDNMTVRVPETVADARQSIDVGKTS [M137K]	-0.121	1.33
MAAAGGARLLRAASAVLGGPAGRWLHHAGSRAGSSGLLRNRGPGGSAEASRSLSVSARARSSSEDKITVHFINRDGETLTTKGKVGDSLLDVVVENNLDIDGFGACEGTLACSTCHLIFEDHIYEKLDAITDEENDGLDLAYGLTDRSRLGCQICLTKSMDNMTVRVPETVADARQSIDVGKTS [M137G]	-0.0982	-0.171
MAAAGGARLLRAASAVLGGPAGRWLHHAGSRAGSSGLLRNRGPGGSAEASRSLSVSARARSSSEDKITVHFINRDGETLTTKGKVGDSLLDVVVENNLDIDGFGACEGTLACSTCHLIFEDHIYEKLDAITDEENDCLDLAYGLTDRSRLGCQICLTKSMDNMTVRVPETVADARQSIDVGKTS [M137C]	-0.596	-0.635
MAAAGGARLLRAASAVLGGPAGRWLHHAGSRAGSSGLLRNRGPGGSAEASRSLSVSARARSSSEDKITVHFINRDGETLTTKGKVGDSLLDVVVENNLDIDGFGACEGTLACSTCHLIFEDHIYEKLDAITDEENDELDLAYGLTDRSRLGCQICLTKSMDNMTVRVPETVADARQSIDVGKTS [M137E]	-0.366	0.879
MAAAGGARLLRAASAVLGGPAGRWLHHAGSRAGSSGLLRNRGPGGSAEASRSLSVSARARSSSEDKITVHFINRDGETLTTKGKVGDSLLDVVVENNLDIDGFGACEGTLACSTCHLIFEDHIYEKLDAITDEENDILDLAYGLTDRSRLGCQICLTKSMDNMTVRVPETVADARQSIDVGKTS [M137I]	0.0941	0.499
MAAAGGARLLRAASAVLGGPAGRWLHHAGSRAGSSGLLRNRGPGGSAEASRSLSVSARARSSSEDKITVHFINRDGETLTTKGKVGDSLLDVVVENNLDIDGFGACEGTLACSTCHLIFEDHIYEKLDAITDEENDHLDLAYGLTDRSRLGCQICLTKSMDNMTVRVPETVADARQSIDVGKTS [M137H]	0.073	-0.384
MAAAGGARLLRAASAVLGGPAGRWLHHAGSRAGSSGLLRNRGPGGSAEASRSLSVSARARSSSEDKITVHFINRDGETLTTKGKVGDSLLDVVVENNLDIDGFGACEGTLACSTCHLIFEDHIYEKLDAITDEENDDLDLAYGLTDRSRLGCQICLTKSMDNMTVRVPETVADARQSIDVGKTS [M137D]	0.813	0.152
MAAAGGARLLRAASAVLGGPAGRWLHHAGSRAGSSGLLRNRGPGGSAEASRSLSVSARARSSSEDKITVHFINRDGETLTTKGKVGDSLLDVVVENNLDIDGFGACEGTLACSTCHLIFEDHIYEKLDAITDEENDALDLAYGLTDRSRLGCQICLTKSMDNMTVRVPETVADARQSIDVGKTS [M137A]	-0.189	0.285
MAAAGGARLLRAASAVLGGPAGRWLHHAGSRAGSSGLLRNRGPGGSAEASRSLSVSARARSSSEDKITVHFINRDGETLTTKGKVGDSLLDVVVENNLDIDGFGACEGTLACSTCHLIFEDHIYEKLDAITDEENYMLDLAYGLTDRSRLGCQICLTKSMDNMTVRVPETVADARQSIDVGKTS [D136Y]	0.0478	-0.0361
MAAAGGARLLRAASAVLGGPAGRWLHHAGSRAGSSGLLRNRGPGGSAEASRSLSVSARARSSSEDKITVHFINRDGETLTTKGKVGDSLLDVVVENNLDIDGFGACEGTLACSTCHLIFEDHIYEKLDAITDEENQMLDLAYGLTDRSRLGCQICLTKSMDNMTVRVPETVADARQSIDVGKTS [D136Q]	0.344	0.87
MAAAGGARLLRAASAVLGGPAGRWLHHAGSRAGSSGLLRNRGPGGSAEASRSLSVSARARSSSEDKITVHFINRDGETLTTKGKVGDSLLDVVVENNLDIDGFGACEGTLACSTCHLIFEDHIYEKLDAITDEENWMLDLAYGLTDRSRLGCQICLTKSMDNMTVRVPETVADARQSIDVGKTS [D136W]	0.188	0.105
MAAAGGARLLRAASAVLGGPAGRWLHHAGSRAGSSGLLRNRGPGGSAEASRSLSVSARARSSSEDKITVHFINRDGETLTTKGKVGDSLLDVVVENNLDIDGFGACEGTLACSTCHLIFEDHIYEKLDAITDEENRMLDLAYGLTDRSRLGCQICLTKSMDNMTVRVPETVADARQSIDVGKTS [D136R]	0.898	1.08
MAAAGGARLLRAASAVLGGPAGRWLHHAGSRAGSSGLLRNRGPGGSAEASRSLSVSARARSSSEDKITVHFINRDGETLTTKGKVGDSLLDVVVENNLDIDGFGACEGTLACSTCHLIFEDHIYEKLDAITDEENTMLDLAYGLTDRSRLGCQICLTKSMDNMTVRVPETVADARQSIDVGKTS [D136T]	0.611	0.431
MAAAGGARLLRAASAVLGGPAGRWLHHAGSRAGSSGLLRNRGPGGSAEASRSLSVSARARSSSEDKITVHFINRDGETLTTKGKVGDSLLDVVVENNLDIDGFGACEGTLACSTCHLIFEDHIYEKLDAITDEENSMLDLAYGLTDRSRLGCQICLTKSMDNMTVRVPETVADARQSIDVGKTS [D136S]	0.133	0.338
MAAAGGARLLRAASAVLGGPAGRWLHHAGSRAGSSGLLRNRGPGGSAEASRSLSVSARARSSSEDKITVHFINRDGETLTTKGKVGDSLLDVVVENNLDIDGFGACEGTLACSTCHLIFEDHIYEKLDAITDEENVMLDLAYGLTDRSRLGCQICLTKSMDNMTVRVPETVADARQSIDVGKTS [D136V]	0.459	0.696
